Each block holds one binder with its values, some of them ahead of it.
What was measured:
[1] = target: T1, biotinylated human PD-L1 (human, UniProt Q9NZQ7 19-238, limits assumed, biotinylated); assay: competition ELISA; coated human PD-1 as competitor; biotinylated human PD-L1 pre-incubated with inhibitor
T1 construct: also called biotinylated PD-L1

[2] = target: T1, biotinylated human PD-L1; assay: competition ELISA; coated human B7.1 as competitor; biotinylated PD-L1 pre-incubated with inhibitor
[3] = target: human PD-L1 expressed on cells (human, UniProt Q9NZQ7 19-290); assay: cell-based or functional assay
[4] = target: T2, human CD137 expressed on cells (human, UniProt Q07011 24-255); assay: cell-based or functional assay
[5] = target: T3, human serum albumin (human, UniProt P02768 25-609); assay: SPR (Biacore T200); SA amine-coupled; pH 5.5
T3 construct: Amine-coupled to a CM5 chip; assay at pH 5.5; also called HSA; human SA

[6] = target: T2, human CD137 expressed on cells; assay: cell-based or functional assay; remark: listed apart in the source
[7] = target: T2, human CD137 expressed on cells; assay: cell-based or functional assay; remark: listed apart in the source
[8] = target: T2, human CD137 expressed on cells; assay: cell-based or functional assay; remark: listed apart in the source

IC50 [1]: 0.00454 µg/mL
IC50 [2]: 0.029 µg/mL
IC50 (ng/ml), neutralization of PD-L1/PD-1 interaction, NFAT-luciferase reporter gene assay [3]: 93.8 ng/mL
B1: PRO1059: 33-03-G02 IgG1 LC with 38_02_A04 sc01 scFV, PD-L1/CD137(scFv) silent Morrison (bispecific antibody)
light: DIQMTQSPSSLSASVGDRVTITCQASQSINDYLAWYQQKPGKAPKLLIYKASTLASGVPSRFSGSGSGTDFTLTISSLQPEDFATYYCQQGYIITDIDNVFGTGTKVTVLGTVAAPSVFIFPPSDEQLKSGTASVVCLLNNFYPREAKVQWKVDNALQSGNSQESVTEQDSKDSTYSLSSTLTLSKADYEKHKVYACEVTHQGLSSPVTKSFNRGECGGGGSGGGGSIQMTQSPSSLSASVGDRVTITCQASQSINNVLAWYQQKPGKAPKLLIYRASTLASGVPSRFSGSGSGTDFTLTISSLQPEDFATYYCQSSYGNYGDFGTGTKVTVLGGGGGSGGGGSGGGGSGGGGSQVQLQESGPGLVKPSETLSLTCKVSGFSFSNSYWICWIRQPPGKGLEWIGCTFVGSSDSTYYANWAKGRVTISVDSSKNQFSLKLSSVTAADTAVYYCARHPSDAVYGYANNLWGQGTLVTVSS
heavy: QVQLQESGPGLVKPSETLSLTCKVSGFSFSSGYDMCWIRQPPGKGLEWIGCVVAGSVDITYYASWAKGRVTISVDSSKNQFSLKLSSVTAADTAVYYCARKDAYSDAFNLWGQGTLVTVSSASTKGPSVFPLAPSSKSTSGGTAALGCLVKDYFPEPVTVSWNSGALTSGVHTFPAVLQSSGLYSLSSVVTVPSSSLGTQTYICNVNHKPSNTKVDKRVEPKSCDKTHTCPPCPAPEAAGGPSVFLFPPKPKDTLMISRTPEVTCVVVDVSHEDPEVKFNWYVDGVEVHNAKTKPREEQYNSTYRVVSVLTVLHQDWLNGKEYKCKVSNKALGAPIEKTISKAKGQPREPQVYTLPPSREEMTKNQVSLTCLVKGFYPSDIAVEWESNGQPENNYKTTPPVLDSDGSFFLYSKLTVDKSRWQQGNVFSCSVMHEALHNHYTQKSLSLSPGK
notes: IgG-scFv fusion, scFv on the light chain; also called Morrison-L

max. activation (%), NF-kB reporter gene, CHO-PD-L1; HSA: yes, 24h [4]: 369%
binding result [5]: binds
IC50 (ng/ml), neutralization of PD-L1/PD-1 interaction, NFAT-luciferase reporter gene assay, with HSA [3]: 275 ng/mL
B2: PRO963 (= PRO1051): 38_02_A04 sc01 scDb-i/33-03-G02 sc01 scDb-o/19-01-H04-sc03 scFv (other)
chain: DIQMTQSPSSLSASVGDRVTITCQASQSINDYLAWYQQKPGKAPKLLIYKASTLASGVPSRFSGSGSGTDFTLTISSLQPEDFATYYCQQGYIITDIDNVFGTGTKVTVLGGGGGSQVQLQESGPGLVKPSETLSLTCKVSGFSFSNSYWICWIRQPPGKGLEWIGCTFVGSSDSTYYANWAKGRVTISVDSSKNQFSLKLSSVTAADTAVYYCARHPSDAVYGYANNLWGQGTLVTVSSGGGGSGGGGSGGGGSGGGGSIQMTQSPSSLSASVGDRVTITCQASQSINNVLAWYQQKPGKAPKLLIYRASTLASGVPSRFSGSGSGTDFTLTISSLQPEDFATYYCQSSYGNYGDFGTGTKVTVLGGGGGSQVQLQESGPGLVKPSETLSLTCKVSGFSFSSGYDMCWIRQPPGKGLEWIGCVVAGSVDITYYASWAKGRVTISVDSSKNQFSLKLSSVTAADTAVYYCARKDAYSDAFNLWGQGTLVTVSSGGGGSGGGGSIQMTQSPSSLSASVGDRVTITCQSSESVYSNNQLSWYQQKPGQPPKLLIYDASDLASGVPSRFSGSGSGTDFTLTISSLQPEDFATYYCAGGFSSSSDTAFGGGTKLTVLGGGGGSGGGGSGGGGSGGGGSEVQLVESGGGLVQPGGSLRLSCAASGFSLSSNAMGWVRQAPGKGLEYIGIISVGGFTYYASWAKGRFTISRDNSKNTVYLQMNSLRAEDTATYFCARDRHGGDSSGAFYLWGQGTLVTVSS
notes: Trispecific scTriabody (scDb-scFv): PD-L1 x CD137 x serum albumin

IC50 [1]: 0.00057 µg/mL
IC50 [2]: 0.00405 µg/mL
IC50 (ng/ml), neutralization of PD-L1/PD-1 interaction, NFAT-luciferase reporter gene assay [3]: 21.3 ng/mL
B3: PRO1013 (anti-PD-L1 scFv, CDR set of clone 37-20-B03 grafted on a VH1 framework) (scFv)
chain: DIQMTQSPSSLSASVGDRVTITCQASQSIGTYLAWYQQKPGKAPKLLIYRAFILASGVPSRFSGSGSGTDFTLTISSLQPEDFATYYCQSNFYSDSTTIGPNAFGTGTKVTVLGGGGGSGGGGSGGGGSGGGGSQVQLVQSGAEVKKPGASVKVSCKASGFSFNSDYWIYWVRQAPGQGLEWMGSIYGGSSGNTQYASWAQGRVTMTRDTSISTAYMELSSLRSEDTAVYYCARGYVDYGGATDLWGQGTLVTVSS

EC50 in ng/ml, CD137 activation, NFkB-luciferase Jurkat reporter assay, PD-L1 expressing CHO cells, 6h [6]: 56.4 ng/mL
EC50 in ng/ml, CD137 activation, NFkB-luciferase Jurkat reporter assay, PD-L1 expressing CHO cells, 24h [7]: 80.8 ng/mL
IC50 [1]: 0.00567 µg/mL
IC50 [2]: 0.0174 µg/mL
EC50 in ng/ml, CD137 activation, NFkB-luciferase Jurkat reporter assay, HCC827 with IFNy stimulation, 24h [8]: 17.5 ng/mL
EC50 in ng/ml, CD137 activation, NFkB-luciferase Jurkat reporter assay, HCC827 without IFNy stimulation, 24h [8]: 13.6 ng/mL
IC50 (ng/ml), neutralization of PD-L1/PD-1 interaction, NFAT-luciferase reporter gene assay [3]: 133 ng/mL
B4: PRO1060: 33-03-G02 IgG1 HC with 38_02_A04 sc01 scFV, PD-L1/CD137(scFv) silent Morrison (bispecific antibody)
light: DIQMTQSPSSLSASVGDRVTITCQASQSINDYLAWYQQKPGKAPKLLIYKASTLASGVPSRFSGSGSGTDFTLTISSLQPEDFATYYCQQGYIITDIDNVFGTGTKVTVLGTVAAPSVFIFPPSDEQLKSGTASVVCLLNNFYPREAKVQWKVDNALQSGNSQESVTEQDSKDSTYSLSSTLTLSKADYEKHKVYACEVTHQGLSSPVTKSFNRGEC
heavy: QVQLQESGPGLVKPSETLSLTCKVSGFSFSSGYDMCWIRQPPGKGLEWIGCVVAGSVDITYYASWAKGRVTISVDSSKNQFSLKLSSVTAADTAVYYCARKDAYSDAFNLWGQGTLVTVSSASTKGPSVFPLAPSSKSTSGGTAALGCLVKDYFPEPVTVSWNSGALTSGVHTFPAVLQSSGLYSLSSVVTVPSSSLGTQTYICNVNHKPSNTKVDKRVEPKSCDKTHTCPPCPAPEAAGGPSVFLFPPKPKDTLMISRTPEVTCVVVDVSHEDPEVKFNWYVDGVEVHNAKTKPREEQYNSTYRVVSVLTVLHQDWLNGKEYKCKVSNKALGAPIEKTISKAKGQPREPQVYTLPPSREEMTKNQVSLTCLVKGFYPSDIAVEWESNGQPENNYKTTPPVLDSDGSFFLYSKLTVDKSRWQQGNVFSCSVMHEALHNHYTQKSLSLSPGKGGGGSGGGGSIQMTQSPSSLSASVGDRVTITCQASQSINNVLAWYQQKPGKAPKLLIYRASTLASGVPSRFSGSGSGTDFTLTISSLQPEDFATYYCQSSYGNYGDFGTGTKVTVLGGGGGSGGGGSGGGGSGGGGSQVQLQESGPGLVKPSETLSLTCKVSGFSFSNSYWICWIRQPPGKGLEWIGCTFVGSSDSTYYANWAKGRVTISVDSSKNQFSLKLSSVTAADTAVYYCARHPSDAVYGYANNLWGQGTLVTVSS
notes: IgG-scFv fusion, scFv on the heavy chain; also called Morrison-H

From EP3470428A1 (Numab Innovation AG, dated 2019)
